Patent US12559560B2, “Antibody-based compositions for targeting tropomyosin receptor kinase B (TrkB) isoforms” (Fred Hutchinson Cancer Center, priority 2020, dated 2026)

Tests used:
Format in all cases: binding
[1] = biological target: T1, full length TrkB.T1 protein (Mus musculus, UniProt P15209); test: Wes capillary Western blot of mouse brain detergent extracts (antibody screening Stage 2); conditions: normal and KO mouse brain detergent extracts; monoclonal culture super diluted 1:2
T1 construct: mouse brain lysates from TrkB.T1^+/+ and TrkB.T1^−/− mice were prepared by mechanical disruption; from tissue; host or cells: mouse brain (TrkB.T1+/+ wild type; TrkB.T1-/- as negative control)
T1 sequence (P15209 32-476 isoform P15209-2 limits assumed): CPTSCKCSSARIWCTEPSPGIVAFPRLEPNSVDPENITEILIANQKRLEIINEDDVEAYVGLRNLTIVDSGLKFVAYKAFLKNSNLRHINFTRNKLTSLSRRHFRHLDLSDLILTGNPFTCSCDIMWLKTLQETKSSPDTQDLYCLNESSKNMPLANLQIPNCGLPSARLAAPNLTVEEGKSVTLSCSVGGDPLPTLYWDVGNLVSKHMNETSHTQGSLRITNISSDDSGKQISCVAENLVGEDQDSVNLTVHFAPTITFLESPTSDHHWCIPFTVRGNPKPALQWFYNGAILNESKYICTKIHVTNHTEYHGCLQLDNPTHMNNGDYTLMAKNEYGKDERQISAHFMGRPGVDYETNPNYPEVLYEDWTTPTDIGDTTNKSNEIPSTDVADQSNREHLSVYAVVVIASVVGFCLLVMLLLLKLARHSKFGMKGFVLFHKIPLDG
Description: Wes™ capillary electrophoresis for antibody development. Protein Simple Wes™ was used at two stages of antibody screening: Stage 1, selecting immunized mice to advance for hybridoma generation, and Stage 2, for validation of monoclonal antibodies that Western blot full-length TrkB.T1 protein in murine brain detergent extracts. Briefly, mouse brain lysates from TrkB.T1^+/+ and TrkB.T1^−/− mice were prepared by mechanical disruption (Dounce tissue homogenizer, Kimble Chase) in RIPA lysis buffer (Pierce™ RIPA Lysis and Extraction Buffer, ThermoScientific™) containing HALT™ Protease and Phosphatase Inhibitor Cocktail and EDTA (ThermoScientific™) and normalized to 2 μg/μl total protein via Bradford Protein Assay. Approximately 8-10 ng total brain extract protein was loaded into the Protein Simple Capillary WES system for Western analysis following Protein Simple recommended methods (Rustandi, R. R., et al. Applications of an automated and quantitative CE-based size and charge western blot for therapeutic proteins and vaccines. Methods Mol. Biol. 1466, 197-217 (2016)). Mice with antisera (1:2500 dilution in PBS and Antibody Diluent (Protein Simple)) that identified a positive band at 90-100 kDa for the TrkB.T1 protein were advanced forward for final boosting, splenectomy, and hybridoma generation (FIG. 3B). […]

TrkB.T1 [2] = biological target: T2, TrkB.T1 (Homo sapiens, UniProt Q16620); test: TrkB.T1 immunohistochemistry on human brain
T2 construct: To determine endogenous localization of TrkB.T1 in human brain, a monoclonal antibody; from tissue; host or cells: normal human brain (rapid autopsy, FFPE sections)
T2 sequence (Q16620 32-477 isoform Q16620-2 limits assumed): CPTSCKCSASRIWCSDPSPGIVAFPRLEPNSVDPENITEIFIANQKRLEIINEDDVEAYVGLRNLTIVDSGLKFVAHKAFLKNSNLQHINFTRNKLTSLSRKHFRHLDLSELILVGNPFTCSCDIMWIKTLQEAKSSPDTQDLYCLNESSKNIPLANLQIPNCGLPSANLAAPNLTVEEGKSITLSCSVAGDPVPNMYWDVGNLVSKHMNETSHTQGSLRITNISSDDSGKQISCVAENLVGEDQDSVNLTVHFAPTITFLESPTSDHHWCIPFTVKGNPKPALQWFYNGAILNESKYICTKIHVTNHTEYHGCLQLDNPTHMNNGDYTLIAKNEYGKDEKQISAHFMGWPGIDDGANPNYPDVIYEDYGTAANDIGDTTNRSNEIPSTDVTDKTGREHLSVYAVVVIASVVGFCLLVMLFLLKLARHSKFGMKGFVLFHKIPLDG
Description: (§1) Antibody validation phase—large batch IHC. Four-μm sections of a multi-tissue block containing human brain, mouse brain, TrkB.T1^−/− mouse brain, a cell pellet over-expressing TrkB.T1 and a cell pellet without TrkB.T1 were cut and stained with the Leica Bond Rx (Leica Biosystems, Buffalo Grove, IL). Slides were pretreated with H2 antigen retrieval buffer for 20 min. Endogenous peroxidase was blocked with 3% hydrogen peroxide for 5 min. A TCT protein block was applied for 10 min (0.05 M Tris, 0.15 M NaCl, 0.25% Casein, 0.1% Tween 20, pH 7.6). Supernatants from multiple boosting and pre-/post-fusion samples, along with antibody clone D12 were used at 1:20 and applied to the tissue for 30 min. The antibody was then detected using Leica Power Vision HRP Mouse specific polymer (Leica Biosystems catalog #PV6114) for 12 min and staining was visualized with Refine DAB (Leica Biosystems catalog #D59800) and a hematoxylin counterstain was used (Hematoxylin 50% in H2O from Biocare catalog #NM-HEM-M). Mouse isotype control slides were included for each run (Jackson ImmunoResearch Laboratories) at 2 μg/ml. Digital images of IHC-stained slides were obtained at ×40 magnification (0.25 μm/pixel) using a whole slide scanner (ScanScope AT Turbo, Aperio) fitted with a 20×/0.75 Plan Apo objective lens and ×2 magnification changer (Olympus, Center Valley, Pa., USA). […]

TrkB.T1 [3] = biological target: T3, TrkB.T1 (Mus musculus, UniProt P15209); test: TrkB.T1 immunohistochemistry on mouse brain / mouse tumors
T3 construct: from tissue; host or cells: formalin-fixed paraffin-embedded mouse brain and RCAS/tv-a mouse gliomas
T3 sequence (P15209 32-476 isoform P15209-2 limits assumed): as the sequence (P15209 32-476 isoform P15209-2 limits assumed) above
Description: as §1

B1: Clone FH1D12: Murine monoclonal antibody to the TrkB.T1 C-terminal peptide … (SEQ ID NO:1), raised in TrkB.T1 null mice (antibody, V domains shown)
VL: QTVVTQESALTTSPGETVTLTCRSSTGAVTTSNYANWVQEKPDHLFTGLIGGINNRAPGVPARFSGSLIGDKAVLTITGAQTEDEAIYFCALWYSNHWVFGGGTKLTVL
VH: VQLQQSGPELARPWASVKISCQAFYTFSRGIHFDIRNTMYWIQWVKQRPGQGLEWIGAIYPGNGDPTYSQNFKDKATLTADKSSNTAYMQLSSLTSEDSAVYYCARYDYGGGFTYWGQGTLVTVSAGS
B1 was tested, and the “Western blotting activity (full length TrkB.T1 protein)” value [1] was “positive”, the “immunostaining in human brain” value (TrkB.T1 [2]) was “positive” and the “staining in TrkB.T1-/- knockout mouse brain” value (TrkB.T1 [3]; TrkB.T1-/- knockout mouse brain (specificity control)) was “absent”. The “immunostaining in wild-type (WT) mouse brain” value (TrkB.T1 [3]; wild-type mouse brain) was “positive”.
